From the supplement of paper PMC9170038

System: MS2 coat protein
Test: apparent KD of MS2 coat protein; higher = weaker reporter binding
Conditions: Eterna round: R107
Method in brief: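 Each design's apparent KD comes from the median of binding-curve fits to its normalised clusters. Those clusters carried RNA switches transcribed on-chip from Illumina sequencing clusters. SNAP-549-labelled MS2 coat protein was titrated onto them in twofold steps (0.7 or 1.5 nM to 3 µM; per step 0.8–1.5 h down to 10–20 min). Conditions were 100 mM Tris-HCl pH 7.5, 80 mM KCl, 4 mM MgCl2, without or with constant ligand.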

[1] = input ligand: theophylline 20 uM
[2] = input ligand: tryptophan 2.4 mM
[3] = input ligand: theophylline 2 mM

Sequence | apparent KD of MS2 coat protein (input ligand: arginine 13.2 mM) [nM] | apparent KD of MS2 coat protein [1] [nM] | apparent KD of MS2 coat protein [2] [nM] | apparent KD of MS2 coat protein (input ligand: none) [nM] | apparent KD of MS2 coat protein [3] [nM]
CCGAACAUGAGGAUCACCCAUGUUAGGGAUACCAGCCCAGACAUGGGCCCUUGGCAGCUCUAUAGCUGACGAAAGUCAGCAUCGG [#14 SameState-TheophyllineA] | 34.9 | 65.7 | 44.4 | – | –
CCGACGAUGACCAAAGGUCAGGAGUGCGCACGAGGACCGGUACGGCCGCCACUCGAGGAGUGGGACAUGAGGAUCACCCAUGUAA [X-TryptA-ms2@65-1] | 23.9 | 29 | 21.8 | 22.4 | 20.6
CCGUUUUAUGGCGACAUAGGGCGGACUGAAGGAGCGGUAUAAUAGCCAGGUAGGUCGCAGAGAUCCACAUGAGGAUCACCCAUGU [!0.aB] | 73.9 | 51.5 | 34.3 | 34.3 | 42.9
CCUAUGCAGUCGGCCGCCACUGAGUCCUCAAUAAUAAAUUAUUAUACAUGAGGAUCACCCAUGUACAGGACCGGGACUGUAUAGG [Ex Tryptophan B 14] | 89 | 244 | 214 | 122 | 237
CCUGCUACGGGAAACCGUAGCAGGAAUGAUACCAGUAGGAAAGACUACCCUUGGCAGCAUGGGAAACAUGAGGAUCACCCAUGUU [SSThA NP+V+V2 #7 Same Structure] | 37.1 | 76.3 | 50.8 | – | –
CGCAACCCACAUGAGGAUCACCCAUGUGAAGGAGCGGCGAAUAAGCCAGGUAGGUCGCGCAUGAAUAAAUCAUGUAGGAAGCUAA [XArg-A 8 V1] | 9.8 | 13.2 | 9.79 | 10.8 | 12.7
CGCGAGACGGCGGCCGCCACUUGUUGUUGGAAACUCGAGUUACAUGAGGAUCACCCAUGUCCUUAAAGGACCGGGCCGUAAGUAA [theeternabot_sameState_MS2_Trp_B_13] | 99.3 | 198 | – | – | 219
CGCGCGACAUGAGGAUCACCCAUGUUCCCUCGAGGACCGGUACGGCCGCCACUCGAGGACAUGAGCAUCAGCCAUGUACCGGUCA [Default title] | 28.8 | 54.6 | – | – | 66.2
CGCGUCCCGGACGAUACCAGAUAUGAGCGACACAUGAGGAUCACCCAUGUCAAUCAUGAGAUCCCUUGGCAGCGUUUGCACAACU [theeternabot_sameState_MS2_Theo_B_8] | 81.2 | 210 | 183 | – | –
CGCUGGCCACAUGAGGAUCACCCAUGUGAAGGAGCGGCGAAUAAGCCAGGUAGGUCGCGCAUGAAUAAAUCAUGUAGGUUGCGAA [XArg-A 11 V2] | 16.9 | 14.9 | 14.5 | 13.4 | 17.9
CGGGAACGAUAUGAUACCAGCCUGCGAAAGAAUGCUUAGUACAUGAGGAUCACCCAUGUAGGCCCUUGGCAGCAUCGACUCAAGU [theeternabot_exclusion_MS2_Theo_B_4] | 13.1 | 18.1 | 13.2 | – | –
CGGUACAUGAGGAUCACCCAUGUGUCGGAUACCAGAGAGCCGGCUCUCCCUUGGCAGCUGGUGCGACAUGAGGAUCACCCAUGUG [Exclusion Theophylline A GF19] | 29.4 | 58.5 | 53.3 | 61.6 | 67.4
CGGUGUAGGGUUAAUAGGCUGAGUACAGAAGGAGCGCGAAUAAACGCAGGUAGGUCGCUGGCGAACAUGAGGAUCACCCAUGUAU [Same State Arginine A GF 30] | 29.5 | 24 | 15.9 | 18.4 | 32
CGUAGUAUCAGACAUGAGGAUCACCCAUGUCGAGGACCGGUACGGCCGCCACUCGGCAGUUUGCGUCCUCAGGUACUCCAGGUAA [Larirexea] | 14.8 | 27.9 | – | – | 26.1
CUACAUUUGUAGAAACCGGUCAACAUUAUUCGAGGACCGGUACGGCCGCCACUCGUAUAUUUUAAUACAUGAGGAUCACCCAUGU [Tryptophan A 6] | 12.3 | 14.2 | – | – | 13.6
CUCAUCCACGCGGCCGCCACUAUAUUGUGGUGUGGGUGUGACGUAUUACAUGAGGAUCACCCAUGUAGGACCGGGCGUGGAUGAG [Stork] | 188 | 525 | 534 | 408 | 1100
CUCCCGUGGUCGGCCGCCACUGGAGGCCUCGCGCGACAUGAGGAUCACCCAUGUUGGCCCGGCGUCAGGACCGGGAUCGCGUGAG [#1 Same State - Tryptophan B Attempt #9 (HarryS)] | 11.8 | 10.3 | 10.8 | 11 | 12.1
